Paper PMC9482650, “Quantitative fragmentomics allow affinity mapping of interactomes” (Nature Communications, 2022)

T1: PTPN13_1, Q12923
T1 sequence (Q12923 1088-1188, limits assumed, looked up): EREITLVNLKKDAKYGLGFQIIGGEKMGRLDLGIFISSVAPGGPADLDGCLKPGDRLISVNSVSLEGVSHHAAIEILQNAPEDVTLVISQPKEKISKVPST

T2: RAPGEF6, Q8TEU7
T2 sequence (Q8TEU7 525-625, limits assumed, looked up): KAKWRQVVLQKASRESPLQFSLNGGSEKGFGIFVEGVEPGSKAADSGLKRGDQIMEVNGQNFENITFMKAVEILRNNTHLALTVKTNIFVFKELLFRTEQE

T3: APBA1_1, Q02410
T3 sequence (Q02410 651-752, limits assumed, looked up): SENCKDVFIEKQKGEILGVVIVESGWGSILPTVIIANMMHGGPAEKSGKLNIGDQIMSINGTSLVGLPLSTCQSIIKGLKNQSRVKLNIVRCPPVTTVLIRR

T4: TIAM2, Q8IVF5
T4 sequence (Q8IVF5 885-986, limits assumed, looked up): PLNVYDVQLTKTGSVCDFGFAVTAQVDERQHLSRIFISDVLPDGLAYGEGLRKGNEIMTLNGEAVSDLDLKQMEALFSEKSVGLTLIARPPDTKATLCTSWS

T5: MPDZ_12, O75970
T5 sequence (O75970 1857-1958, limits assumed, looked up): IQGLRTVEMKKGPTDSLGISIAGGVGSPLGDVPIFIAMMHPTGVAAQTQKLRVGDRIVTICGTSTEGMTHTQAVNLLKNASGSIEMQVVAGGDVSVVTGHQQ

T6: MPDZ_5, O75970
T6 sequence (O75970 695-796, limits assumed, looked up): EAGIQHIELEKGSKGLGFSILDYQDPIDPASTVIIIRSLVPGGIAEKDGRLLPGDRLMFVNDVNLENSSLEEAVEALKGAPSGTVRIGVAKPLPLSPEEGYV

T7: GRIP1_2, Q9Y3R0
T7 sequence (Q9Y3R0 145-248, limits assumed, looked up): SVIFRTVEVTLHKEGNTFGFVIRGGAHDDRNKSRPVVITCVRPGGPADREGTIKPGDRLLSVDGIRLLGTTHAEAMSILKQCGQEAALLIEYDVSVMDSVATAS

T8: RHPN1, Q8TCX5
T8 sequence (Q8TCX5 508-602, limits assumed, looked up): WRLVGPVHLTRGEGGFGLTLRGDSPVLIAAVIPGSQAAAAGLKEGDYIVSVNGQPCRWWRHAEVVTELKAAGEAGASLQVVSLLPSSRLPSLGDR

T9: PDZD2_2, O15018
T9 sequence (O15018 329-429, limits assumed, looked up): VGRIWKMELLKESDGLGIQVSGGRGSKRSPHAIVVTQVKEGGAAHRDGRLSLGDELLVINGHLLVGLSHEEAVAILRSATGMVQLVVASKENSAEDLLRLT

T10: LNX2_3, Q8N448
T10 sequence (Q8N448 463-564, limits assumed, looked up): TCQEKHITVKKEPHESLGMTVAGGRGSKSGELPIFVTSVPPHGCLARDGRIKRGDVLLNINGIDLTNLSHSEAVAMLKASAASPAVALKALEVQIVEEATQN

B1: CD46, P15529 (peptide)
chain: THREVKFTSL

molecular target: LNX1_2, Q8TBB1; test: holdup assay; parameters: key: below the threshold = too weak to quantify, mostly under pKd 3.1 to 4; conditions: plain residues with an end cap or a label only (N-terminal biotin on a linker: ado-ado)
Sequence (Q8TBB1 371-470): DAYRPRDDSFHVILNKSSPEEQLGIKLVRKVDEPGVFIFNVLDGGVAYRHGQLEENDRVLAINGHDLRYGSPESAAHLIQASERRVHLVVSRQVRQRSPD

pKd	Binder
below the threshold	B1

molecular target: T1, PTPN13_1, Q12923; test: holdup assay; parameters: key: below the threshold = too weak to quantify, mostly under pKd 3.1 to 4; conditions: plain residues with an end cap or a label only (N-terminal biotin on a linker: ado-ado)

pKd	Binder
below the threshold	B1

molecular target: HTRA2, O43464; test: holdup assay; parameters: key: below the threshold = too weak to quantify, mostly under pKd 3.1 to 4; conditions: plain residues with an end cap or a label only (N-terminal biotin on a linker: ado-ado)
Sequence (O43464 355-458): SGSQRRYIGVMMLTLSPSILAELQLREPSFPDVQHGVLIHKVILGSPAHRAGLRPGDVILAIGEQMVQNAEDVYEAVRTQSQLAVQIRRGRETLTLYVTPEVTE

pKd	Binder
below the threshold	B1

molecular target: T2, RAPGEF6, Q8TEU7; test: holdup assay; parameters: key: below the threshold = too weak to quantify, mostly under pKd 3.1 to 4; conditions: plain residues with an end cap or a label only (N-terminal biotin on a linker: ado-ado)

pKd	Binder
below the threshold	B1

molecular target: FRMPD2_1, Q68DX3; test: holdup assay; parameters: key: below the threshold = too weak to quantify, mostly under pKd 3.1 to 4; conditions: plain residues with an end cap or a label only (N-terminal biotin on a linker: ado-ado)
Sequence (Q68DX3 770-861): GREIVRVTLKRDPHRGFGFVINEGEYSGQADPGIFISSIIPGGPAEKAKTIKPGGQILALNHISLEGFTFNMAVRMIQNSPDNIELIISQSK

pKd	Binder
below the threshold	B1

molecular target: GRIP2_7, Q9C0E4; test: holdup assay; parameters: key: below the threshold = too weak to quantify, mostly under pKd 3.1 to 4; conditions: plain residues with an end cap or a label only (N-terminal biotin on a linker: ado-ado)
Sequence (Q9C0E4 934-1023): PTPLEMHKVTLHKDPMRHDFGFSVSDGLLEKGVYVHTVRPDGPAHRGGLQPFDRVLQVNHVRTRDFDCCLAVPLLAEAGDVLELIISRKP

pKd	Binder
below the threshold	B1

molecular target: GRIP2_3, Q9C0E4; test: holdup assay; parameters: key: below the threshold = too weak to quantify, mostly under pKd 3.1 to 4; conditions: plain residues with an end cap or a label only (N-terminal biotin on a linker: ado-ado)
Sequence (Q9C0E4 238-339): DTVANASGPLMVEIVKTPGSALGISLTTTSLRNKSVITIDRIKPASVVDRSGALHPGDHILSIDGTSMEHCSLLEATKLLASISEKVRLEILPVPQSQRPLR

pKd	Binder
below the threshold	B1

molecular target: T3, APBA1_1, Q02410; test: holdup assay; parameters: key: below the threshold = too weak to quantify, mostly under pKd 3.1 to 4; conditions: plain residues with an end cap or a label only (N-terminal biotin on a linker: ado-ado)

pKd	Binder
below the threshold	B1

molecular target: MAGI2_2, Q86UL8; test: holdup assay; parameters: key: below the threshold = too weak to quantify, mostly under pKd 3.1 to 4; conditions: plain residues with an end cap or a label only (N-terminal biotin on a linker: ado-ado)
Sequence (Q86UL8 410-522): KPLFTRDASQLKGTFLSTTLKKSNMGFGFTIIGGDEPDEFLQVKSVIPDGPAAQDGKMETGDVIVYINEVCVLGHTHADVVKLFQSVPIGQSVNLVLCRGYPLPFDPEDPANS

pKd	Binder
3.88	B1

molecular target: T4, TIAM2, Q8IVF5; test: holdup assay; parameters: key: below the threshold = too weak to quantify, mostly under pKd 3.1 to 4; conditions: plain residues with an end cap or a label only (N-terminal biotin on a linker: ado-ado)

pKd	Binder
4.06	B1

molecular target: SNX27, Q96L92; test: holdup assay; parameters: key: below the threshold = too weak to quantify, mostly under pKd 3.1 to 4; conditions: plain residues with an end cap or a label only (N-terminal biotin on a linker: ado-ado)

pKd	Binder
4.35	B1

molecular target: PARD3_3, Q8TEW0; test: holdup assay; parameters: key: below the threshold = too weak to quantify, mostly under pKd 3.1 to 4; conditions: plain residues with an end cap or a label only (N-terminal biotin on a linker: ado-ado)
Sequence (Q8TEW0 582-685): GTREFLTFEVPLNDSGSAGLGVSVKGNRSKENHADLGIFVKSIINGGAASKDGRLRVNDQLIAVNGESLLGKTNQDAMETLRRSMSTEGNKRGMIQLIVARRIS

pKd	Binder
below the threshold	B1

molecular target: NHERF4_1, Q86UT5-2; test: holdup assay; parameters: key: below the threshold = too weak to quantify, mostly under pKd 3.1 to 4; conditions: plain residues with an end cap or a label only (N-terminal biotin on a linker: ado-ado)
Sequence (Q86UT5 other isoform, or with tags, fused parts or gaps): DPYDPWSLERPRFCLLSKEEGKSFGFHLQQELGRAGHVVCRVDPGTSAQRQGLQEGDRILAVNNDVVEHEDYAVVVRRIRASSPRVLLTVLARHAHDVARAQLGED

pKd	Binder
4.28	B1

molecular target: FRMPD3, Q5JV73; test: holdup assay; parameters: key: below the threshold = too weak to quantify, mostly under pKd 3.1 to 4; conditions: plain residues with an end cap or a label only (N-terminal biotin on a linker: ado-ado)
Sequence (Q5JV73 12-100): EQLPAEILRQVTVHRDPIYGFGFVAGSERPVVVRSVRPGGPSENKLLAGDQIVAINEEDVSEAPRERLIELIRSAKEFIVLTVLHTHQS

pKd	Binder
below the threshold	B1

molecular target: T5, MPDZ_12, O75970; test: holdup assay; parameters: key: below the threshold = too weak to quantify, mostly under pKd 3.1 to 4; conditions: plain residues with an end cap or a label only (N-terminal biotin on a linker: ado-ado)

pKd	Binder
below the threshold	B1

molecular target: T6, MPDZ_5, O75970; test: holdup assay; parameters: key: below the threshold = too weak to quantify, mostly under pKd 3.1 to 4; conditions: plain residues with an end cap or a label only (N-terminal biotin on a linker: ado-ado)

pKd	Binder
below the threshold	B1

molecular target: LAP2, Q96RT1; test: holdup assay; parameters: key: below the threshold = too weak to quantify, mostly under pKd 3.1 to 4; conditions: plain residues with an end cap or a label only (N-terminal biotin on a linker: ado-ado)
Sequence (Q96RT1 other isoform, or with tags, fused parts or gaps): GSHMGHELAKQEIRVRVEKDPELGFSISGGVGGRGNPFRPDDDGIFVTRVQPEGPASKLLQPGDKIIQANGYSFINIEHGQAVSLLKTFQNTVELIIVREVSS

pKd	Binder
below the threshold	B1

molecular target: DLG4_3, P78352; test: holdup assay; parameters: key: below the threshold = too weak to quantify, mostly under pKd 3.1 to 4; conditions: plain residues with an end cap or a label only (N-terminal biotin on a linker: ado-ado)
Sequence (P78352 306-403): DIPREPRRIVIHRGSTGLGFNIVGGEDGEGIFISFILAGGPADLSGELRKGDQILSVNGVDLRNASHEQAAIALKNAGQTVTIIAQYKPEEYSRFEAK

pKd	Binder
4.3	B1

molecular target: DLG4_1, P78352; test: holdup assay; parameters: key: below the threshold = too weak to quantify, mostly under pKd 3.1 to 4; conditions: plain residues with an end cap or a label only (N-terminal biotin on a linker: ado-ado)
Sequence (P78352 62-152): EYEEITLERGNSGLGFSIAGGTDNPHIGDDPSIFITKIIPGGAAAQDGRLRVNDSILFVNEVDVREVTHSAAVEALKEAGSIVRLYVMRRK

pKd	Binder
below the threshold	B1

molecular target: T7, GRIP1_2, Q9Y3R0; test: holdup assay; parameters: key: below the threshold = too weak to quantify, mostly under pKd 3.1 to 4; conditions: plain residues with an end cap or a label only (N-terminal biotin on a linker: ado-ado)

pKd	Binder
below the threshold	B1

molecular target: T8, RHPN1, Q8TCX5; test: holdup assay; parameters: key: below the threshold = too weak to quantify, mostly under pKd 3.1 to 4; conditions: plain residues with an end cap or a label only (N-terminal biotin on a linker: ado-ado)

pKd	Binder
4.48	B1

molecular target: NOS1, P29475; test: holdup assay; parameters: key: below the threshold = too weak to quantify, mostly under pKd 3.1 to 4; conditions: plain residues with an end cap or a label only (N-terminal biotin on a linker: ado-ado)
Sequence (P29475 9-101): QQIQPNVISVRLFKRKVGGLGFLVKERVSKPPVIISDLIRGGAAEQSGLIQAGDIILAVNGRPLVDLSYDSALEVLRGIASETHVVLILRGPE

pKd	Binder
3.75	B1

molecular target: DLG1_1, Q12959; test: holdup assay; parameters: key: below the threshold = too weak to quantify, mostly under pKd 3.1 to 4; conditions: plain residues with an end cap or a label only (N-terminal biotin on a linker: ado-ado)

pKd	Binder
below the threshold	B1

molecular target: Inadl_1, Q8NI35; test: holdup assay; parameters: key: below the threshold = too weak to quantify, mostly under pKd 3.1 to 4; conditions: plain residues with an end cap or a label only (N-terminal biotin on a linker: ado-ado)
Sequence (Q8NI35 113-229): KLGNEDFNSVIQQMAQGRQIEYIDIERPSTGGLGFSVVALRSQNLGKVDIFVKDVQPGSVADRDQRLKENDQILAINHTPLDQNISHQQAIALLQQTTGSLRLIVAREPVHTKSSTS

pKd	Binder
below the threshold	B1

molecular target: T9, PDZD2_2, O15018; test: holdup assay; parameters: key: below the threshold = too weak to quantify, mostly under pKd 3.1 to 4; conditions: plain residues with an end cap or a label only (N-terminal biotin on a linker: ado-ado)

pKd	Binder
4.26	B1

molecular target: T10, LNX2_3, Q8N448; test: holdup assay; parameters: key: below the threshold = too weak to quantify, mostly under pKd 3.1 to 4; conditions: plain residues with an end cap or a label only (N-terminal biotin on a linker: ado-ado)

pKd	Binder
below the threshold	B1

molecular target: DLG2_3, Q15700; test: holdup assay; parameters: key: below the threshold = too weak to quantify, mostly under pKd 3.1 to 4; conditions: plain residues with an end cap or a label only (N-terminal biotin on a linker: ado-ado)

pKd	Binder
4.38	B1

molecular target: MAST2, Q6P0Q8; test: holdup assay; parameters: key: below the threshold = too weak to quantify, mostly under pKd 3.1 to 4; conditions: plain residues with an end cap or a label only (N-terminal biotin on a linker: ado-ado)
Sequence (Q6P0Q8 1099-1202): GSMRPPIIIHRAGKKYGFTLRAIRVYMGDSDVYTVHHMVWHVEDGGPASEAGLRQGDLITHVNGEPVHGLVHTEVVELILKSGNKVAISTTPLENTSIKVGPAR

pKd	Binder
5.57	B1
